For assay [1], the system named is thrombin generated via the Intrinsic and Common pathways. Put plainly: Thrombin Generation Assay (TGA) triggered by ellagic acid. The class given is biochemical, human. The note with it: Intrinsic Pathway Activation with Ellagic Acid. The text has this: (§1) This Example describes the inhibitory activity of selected antibodies, as determined by four functional plasma assays: 1) Activated Partial Thromboplastin Time (aPTT), 2) Prothrombin Time (PT), 3) Thrombin Generation Assay (TGA) triggered by ellagic acid and 4) TGA triggered by Tissue Factor. The aPTT test evaluates all clotting factors of the Intrinsic and Common pathways of the coagulation cascade by measuring time for a clot to form after the addition of calcium and ellagic acid, whereas the PT test evaluates all clotting factors of the Extrinsic and Common pathways of the coagulation cascade after the addition of calcium and Tissue Factor. The TGA triggered by ellagic acid measures the rate and amount of thrombin generated via the Intrinsic and Common pathways whereas TGA triggered by Tissue Factor measures the rate and amount of thrombin generated via the Extrinsic and Common pathways.
The thrombin generation profile was determined in a Thermo Scientific Hemker Thrombinoscope in the following manner: A total of 55 ul of pooled normal human plasma was added to a well of a microplate at 37° C. Then 5 ul of a 2× serially diluted test article (antibody or small molecule inhibitor) in PBS was added to the well of the microplate and allowed to incubate for 30 min. 15 ul of APPT-XL Ellagic Acid (Thermo Scientific) was diluted in MP reagent then added to the well and allowed to incubate for 45 min. Then 15 ul of Fluo Flu Cal substrate (Diagnostica Stago) was added immediately before a continuous 90 min reading of the microplate. The measured real-time thrombin concentration values were plotted against time to yield a thrombogram profile for each concentration of the test article used.

For the next assay, the target named is T1, human FXIIa (Homo sapiens, UniProt P00748).
T1 construct: Factor XIIa, a beta-globulin plasma serine protease composed of an amino-terminal heavy chain and a carboxy-terminal light chain; purchased Enzyme Research Laboratories 1212a; host or cells: human plasma (said of the same vendor's proteins used as immunogen)
T1 sequence (P00748 20-372 limits assumed): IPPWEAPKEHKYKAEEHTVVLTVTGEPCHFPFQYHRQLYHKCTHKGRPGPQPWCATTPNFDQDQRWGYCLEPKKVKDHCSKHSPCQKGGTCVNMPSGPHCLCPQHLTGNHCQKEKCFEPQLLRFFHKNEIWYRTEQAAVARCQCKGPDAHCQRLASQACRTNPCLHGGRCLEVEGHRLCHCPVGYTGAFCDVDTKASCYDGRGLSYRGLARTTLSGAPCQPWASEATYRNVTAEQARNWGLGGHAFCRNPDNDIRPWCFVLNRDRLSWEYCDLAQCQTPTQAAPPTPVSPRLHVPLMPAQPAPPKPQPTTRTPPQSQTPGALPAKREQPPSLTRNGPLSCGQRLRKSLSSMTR
T1 sequence (P00748 373-615 limits assumed): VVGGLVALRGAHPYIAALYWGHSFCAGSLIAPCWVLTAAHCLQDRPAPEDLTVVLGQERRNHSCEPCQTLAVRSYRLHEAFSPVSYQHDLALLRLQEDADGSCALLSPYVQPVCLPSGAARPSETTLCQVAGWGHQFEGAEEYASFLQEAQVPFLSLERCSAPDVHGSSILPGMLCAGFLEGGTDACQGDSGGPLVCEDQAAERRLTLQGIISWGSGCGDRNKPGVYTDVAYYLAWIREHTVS
Put plainly: Surface plasmon resonance (Biacore 4000) binding kinetics, hFXIIa. Here is the method:
Equilibrium dissociation constant (KD) for different FXII reagents binding to purified anti-FXII monoclonal antibodies were determined using a real-time surface plasmon resonance based Biacore 4000 biosensor. All binding studies were performed in 10 mM HEPES, 300 mM NaCl, and 0.05% v/v Surfactant Tween-20, pH 7.4 (HBS-P) running buffer at 25° C. and 37° C. The Biacore CM5 sensor chip surface was first derivatized by amine coupling with the mouse anti-human Fc specific monoclonal antibody (GE Healthcare Cat #BR100839) to capture anti-FXII monoclonal antibodies. Binding studies were performed on human FXII and FXIIa (Enzyme Research Laboratories, Cat #1212 and 1212a, respectively). Different concentrations of hFXII and hFXIIa (50 nM-3.125 nM; 2-fold serial dilution) were first prepared in HBS-P running buffer and were injected over anti-human Fc captured anti-FXII monoclonal antibody surface for 3 minutes at a flow rate of 30 uL/minute, while the dissociation of monoclonal antibody bound FXII reagent was monitored for 5 minutes in HBS-P running buffer. The association rate (ka) and dissociation rate (kd) were determined by fitting the real-time binding sensorgrams to a 1:1 binding model with mass transport limitation using Scrubber 2.0c curve-fitting software. Binding dissociation equilibrium constant (KD) and dissociative half-life (t½) were calculated from the kinetic rates as: […]

Assay [2] has as its system Extrinsic and Common pathways of the coagulation cascade. Nature of the assay: Prothrombin Time (PT) in pooled normal human plasma. Format: biochemical. The note with it: for C2xt of Prothrombin Time (PT) - Extrinsic Pathway: dash cells, dose up to 4 uM; for effect on plasma PT (in words): dose response curves, pooled normal human plasma.
Excerpt: as §1
The PT was determined on Diagnostica Stago STart4 Hemostasis Analyzer in the following manner. A total of 50 ul of pooled normal human plasma was added to a cuvette at 37° C. After 1 min, 5 ul of a 2× serially diluted test article (antibody or small molecule inhibitor) in PBS was added to the cuvette and allowed to incubate for 5 min. Then 100 ul of Tissue Factor (TriniCLOT PT Excel, Diagnostica Stago) was added to start the reaction. The measured clot time for the test article concentration was normalized to baseline (no drug) plasma clot time and plotted against log molar concentration of the test article. The results were analyzed using nonlinear regression (4-parameter logistics) with Prism 5 software (GraphPad) to obtain doubling time concentration.

As a reminder, the Kd is the concentration at which binding is half-saturated. A lower Kd goes with a tighter complex. By t½ is commonly meant the time in which the quantity being followed falls by half. Lower therefore signals fast loss.

B1: mAb26049: fully human anti-FXII/FXIIa monoclonal antibody, HCVR/LCVR SEQ ID NOs: 34/42 (antibody, V domains shown)
VH: EVQLVESGGDLVQPGGSLRLSCAASGFTFNTYAMHWVRQAPGKGLEYISAIDTKGGSTYYADSVKGRFTISRDNSKNAQYLQMDSLRVEDMAVYYCARGFGLDVWGQGTTVTVSS
VL: DVVMTQSPLSLAVTLGQPASISCRSSQSLGYSDGNTYLNWFQQRPGQSPRRLIYKVSNRDSGVPDRFSGSGSGTDFTLKINRVETVDVGVYYCMQATHWPYTFGQGTKLEIK
Consider B1, for which, in assay [1], the “Concentration required for ↑ lag time by 2×” value (“Concentration required … by 2×” for short) is reported as 200 nM, the “Concentration required for ↓ endogenous thrombin potential by ½” value was 250 nM and the “Concentration required for ↓ thrombin peak by ½” value was 250 nM. In the assay with human FXIIa (25° C.), this molecule returned a Kd of 5.07 nM, a ka of 97600 M⁻¹ s⁻¹, a kd of 0.000495 s⁻¹ and a t½ of 23.4 min. Also, in the assay with human FXIIa (37° C.), the Kd came out at 6.31 nM, the ka turned out to be 244000 M⁻¹ s⁻¹, the kd is 0.00154 s⁻¹ and the t½ worked out at 7 min. In assay [2], the “C2xt of Prothrombin Time (PT) - Extrinsic Pathway” value (“C2xt of Prothrombin Time (PT)” for short) is recorded as “— (no inhibitory effect on clotting time with a dose up to 4 uM)” and the “effect on plasma PT (in words)” value is given as “without increasing PT”.

B2: mAb26036: fully human anti-FXII/FXIIa monoclonal antibody, HCVR/LCVR SEQ ID NOs: 2/10 (antibody, V domains shown)
VH: QVQLVQSGAEVKKPGASVTVSCKASGYTFTSYYLHWVRQAPGQGLEWMGIINPSGGSTSYAQKFQGRVTMTRDTSTSTVYMELSSLRSEDTAVYYCARGVTTVTTYYHYYNMDVWGQGTTVTVSS
VL: DIQMTQSPSSLSASVGDRVTITCRASQGISNYLAWFQQKPGKAPKSLIYAASSLQSGVPSKFSGSGSGTDFTLTISSLQPEDFATYYCQKYNTYPLTFGGGTKVEIK
As to B2, in assay [1], the “Concentration required … by 2×” value amounted to 175 nM, the “Concentration required for ↓ endogenous thrombin potential by ½” value was determined as 250 nM and the “Concentration required for ↓ thrombin peak by ½” value amounted to 250 nM. In addition, in the assay with human FXIIa (25° C.), binding was put at a Kd of 3.78 nM, the ka turned out to be 42800 M⁻¹ s⁻¹, the kd was 0.000162 s⁻¹ and the t½ is given as 71.4 min. Besides, in the assay with human FXIIa (37° C.), binding was characterised by a dissociation constant (Kd) of 4.74 nM, the ka was 84600 M⁻¹ s⁻¹, the kd worked out at 0.000401 s⁻¹ and the t½ is 29 min. In assay [2], the “C2xt of Prothrombin Time (PT)” value is recorded as “— (no inhibitory effect on clotting time with a dose up to 4 uM)” and the “effect on plasma PT (in words)” value was “without increasing PT”.

B3: mAb26048: fully human anti-FXII/FXIIa monoclonal antibody, HCVR/LCVR SEQ ID NOs: 18/26 (antibody, V domains shown)
VH: EVQLVESGGGLVQPRGSLRLSCVASGFTFSDYGMSWVRQAPGKGLEWVSVIGGAGHGTYYADSVKGRFTISRDNSRNTLYLQMNSLRDEDTAVYYCAKKYYWNYVGGMDVWGRGTTVTVSS
VL: DIQMTQSPSSVSASVGDRVTITCRASQDINNWLAWYQQKPGKAPKLLISTASSLQSGVPSRFSGSGSGTDFTLTISSLQPEDFATYYCQQANSLPFTFGPGTKVDIK
For B3, in assay [1], the “Concentration required … by 2×” value turned out to be 150 nM, the “Concentration required for ↓ endogenous thrombin potential by ½” value was 250 nM and the “Concentration required for ↓ thrombin peak by ½” value turned out to be 250 nM. In the assay with human FXIIa (25° C.), this molecule came in with a Kd of 2.07 nM, a ka of 208000 M⁻¹ s⁻¹, a kd of 0.00043 s⁻¹ and a t½ of 26.8 min. In the assay with human FXIIa (37° C.), this molecule showed a dissociation constant Kd of 1.79 nM, a ka of 439000 M⁻¹ s⁻¹, a kd of 0.000784 s⁻¹ and a t½ of 15 min. Further, in assay [2], the “C2xt of Prothrombin Time (PT)” value is “— (no inhibitory effect on clotting time with a dose up to 4 uM)” and the “effect on plasma PT (in words)” value is on record as “without increasing PT”.

For the origin of these results see US12068729B2, “Anti-factor XII/XIIa antibodies and uses thereof” (Regeneron Pharmaceuticals, Inc., priority 2018, dated 2024).
